Test [1] deals with T1, C1s in normal cynomolgus monkey serum (CMS, CompTech NCYS) (cynomolgus monkey, UniProt A0A2K5VQX9 16-685).
T1 sequence: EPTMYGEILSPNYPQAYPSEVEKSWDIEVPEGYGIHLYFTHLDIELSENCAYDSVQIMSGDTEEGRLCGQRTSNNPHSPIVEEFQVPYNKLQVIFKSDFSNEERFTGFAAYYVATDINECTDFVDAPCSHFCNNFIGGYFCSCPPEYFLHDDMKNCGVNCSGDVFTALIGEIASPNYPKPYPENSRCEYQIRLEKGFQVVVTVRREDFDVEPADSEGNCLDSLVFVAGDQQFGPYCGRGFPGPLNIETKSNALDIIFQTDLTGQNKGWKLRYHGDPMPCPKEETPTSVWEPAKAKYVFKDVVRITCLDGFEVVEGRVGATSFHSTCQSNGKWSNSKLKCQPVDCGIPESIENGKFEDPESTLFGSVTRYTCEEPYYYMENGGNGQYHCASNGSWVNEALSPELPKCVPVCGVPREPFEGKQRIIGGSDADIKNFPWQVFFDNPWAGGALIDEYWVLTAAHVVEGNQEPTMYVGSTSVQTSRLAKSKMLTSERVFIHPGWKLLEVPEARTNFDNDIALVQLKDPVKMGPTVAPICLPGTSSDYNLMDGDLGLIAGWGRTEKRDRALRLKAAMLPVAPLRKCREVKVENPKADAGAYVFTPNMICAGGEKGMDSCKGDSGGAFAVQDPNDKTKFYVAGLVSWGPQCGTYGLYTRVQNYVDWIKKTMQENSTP
As to the kind of experiment: cell-based or functional assay.

For test [2], the target named is T2, human C1s mutant M14 (R316H) (human, UniProt P09871 16-688).
T2 construct: The entry is the mutant itself
T2 sequence: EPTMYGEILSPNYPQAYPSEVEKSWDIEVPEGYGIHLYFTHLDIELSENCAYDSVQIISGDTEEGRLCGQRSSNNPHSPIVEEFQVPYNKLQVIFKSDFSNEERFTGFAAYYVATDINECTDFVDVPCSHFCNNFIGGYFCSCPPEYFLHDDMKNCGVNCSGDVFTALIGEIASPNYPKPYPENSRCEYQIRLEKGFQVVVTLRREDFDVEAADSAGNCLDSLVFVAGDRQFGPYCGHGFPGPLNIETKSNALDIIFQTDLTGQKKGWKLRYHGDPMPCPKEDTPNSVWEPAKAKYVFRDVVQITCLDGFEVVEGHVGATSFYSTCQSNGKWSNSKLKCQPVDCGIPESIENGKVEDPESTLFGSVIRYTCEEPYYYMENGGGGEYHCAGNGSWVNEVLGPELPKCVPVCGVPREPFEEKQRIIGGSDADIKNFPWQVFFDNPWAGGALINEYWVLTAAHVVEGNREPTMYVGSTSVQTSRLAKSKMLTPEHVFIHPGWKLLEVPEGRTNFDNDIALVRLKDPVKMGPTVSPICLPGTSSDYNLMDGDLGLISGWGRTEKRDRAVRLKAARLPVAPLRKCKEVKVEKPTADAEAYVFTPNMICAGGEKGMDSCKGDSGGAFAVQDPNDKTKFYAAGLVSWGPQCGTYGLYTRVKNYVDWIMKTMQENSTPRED
As to the kind of experiment: ELISA, plate coated with human C1s mutant M14: R316H, OD450nm. The protocol:
ELISA was carried out by first coating 96-well plates with 200 ng/well of full-length or truncated C1s proteins overnight. The next morning, plates were blocked with SuperBlock T20 blocking buffer (Thermo Scientific 37536) for 1 h with gentle shaking. Then, various concentrations of anti-C1s antibodies diluted in SuperBlock T20 blocking buffer were added to the plates and incubated for 1 h with gentle shaking. Mouse IgG (Sigma-Aldrich 15381) and human IgG1 (BioXCell BP0297) were used as negative controls. The plates were washed before incubating with HRP conjugated secondary antibodies diluted in SuperBlock T20 blocking buffer (goat anti-mouse IgG (H+L) cross-adsorbed secondary antibody HRP (Invitrogen G-21040) or goat anti-human IgG antibody, HRP conjugate (Millipore AP309P)) for 1 h with gentle shaking. At last, the plates were washed and color developed with ELISA liquid HRP substrate (Sigma-Aldrich), followed by stopping the reaction with addition of 1M H₂SO₄ in the same volume as the ELISA liquid substrate. Bound antibody was measured by absorbance at OD₄₅₀ₙₘ.
Binding of anti-C1s antibodies to mutants M1-M20 of human C1s was measured by ELISA as described in Example 4, and results are shown in FIGS. 6B-6U. All anti-C1s humanized variants including hz2-7(H1L2), hz2-8(H1L2 G80A) and hz2-8(H1L2 G80A/T82A) maintained strong binding properties to the majority (16 out of 20) of C1s mutants including M1 (FIG. 6B), M2 (FIG. 6C), M3 (FIG. 6D). M4 (FIG. 6E), M7 (FIG. 6H), M8 (FIG. 6I), M10 (FIG. 6K), M11 (FIG. 6L), M12 (FIG. 6M), M13 (FIG. 6N), M15 (FIG. 6P), M16 (FIG. 6Q), M17 (FIG. 6R), M18 (FIG. 6S), M19 (FIG. 6T) and M20 (FIG. 6U).
On the technique in general: ELISA stands for enzyme-linked immunosorbent assay.

Test [3] concerns the target T3, C1s in normal human serum (NHS, CompTech NHS) (human, UniProt P09871 16-688).
T3 sequence (looked up): T2 sequence with H316R
As to the kind of experiment: cell-based or functional assay.

Where a chain is given by its changes, count along the chain named. Names and notes keep the numbering of the source.

The source of these data is US20230051715A1 (MABWELL THERAPEUTICS, published 2023).

B1: Anti-C1s antibody 2-8 (antibody, V domains shown)
VH: EVQLQQSGAELVRPGALVKLSCKASGFNIKEYYMHWVKQRPEQGLEWIGWIDPENGDTIYDPKFQGKASITADTSSNTAYLQLSSLTSEDTAVYYCARSRLFFAYWGQGTLVTVSA
VL: DIVMTQSHKFMSTSVGDRVSFTCKASQDVRTAVDWYQQKPGQSPKLLIYSASYRYTGVPDRFTGTGSGTDFTFTISSVQAEDLAVYFCQQQYTTPYTFGGGTKLEIKT
notes: the HC/LC entries may hold it too; also called clone 2-8
With B1, the “IC50, inhibition of IgM-induced C4 deposition from cynomolgus monkey serum” value in test [1] was around 0.5 µg/mL.

B2: Anti-C1s antibody hz2-7(H1L2) (antibody, V domains shown)
VH: EVQLLESGGGLVQPGGSLRLSCAASGFTFSNYFMNWVRQAPGKGLEWVSEIRLKFTNYATHYADSVKGRFTISRDDSKSTLYLQMNSLRAEDTAVYYCTRDYGSRNGYFDYWGQGTLVTVSS
VL: DIVMTQTPLSLPVTPGEPASISCRSSKSLLHSNGNTFLYWFLQKPGQSPQLLIYRMSNLASGVPDRFSGSGSGTDFTLKISRVEAEDVGVYYCMQHLEYPYTFGGGTKLEIKR
notes: Humanized, human IgG1 / kappa; also called hz2-7(1L2)
As to B2, in test [2], the binding result is on record as “no binding (tested: 1000 ng/ml (Log 3))”. In test [3], the “IC50, inhibition of IgM-induced C4 deposition from NHS” value (from here on “IC50, inhibition … from NHS”) amounted to 1.1 µg/mL and the “IC50, inhibition of human complement-mediated lysis of EA” value was 4.1 µg/mL. Also, in test [1], the “IC50, inhibition of IgM-induced C4 deposition from CMS” value (from here on “IC50, inhibition … from CMS”) was 0.9 µg/mL and the “IC50, inhibition of cynomolgus monkey complement-mediated lysis of EA” value is 0.8 µg/mL.

B3: Anti-C1s antibody hz2-8 (H1L2 G80A) (antibody, V domains shown)
VH: QVQLVQSGAEVKKPGASVKVSCKASGFNIKEYYMHWVRQAPEQGLEWMGWIDPENADTIYAQKFQGRVTITADTSTNTAYMELSSLRSEDTAVYYCARSRLFFAYWGQGTLVTVSS
VL: DIQMTQSPKSLSASVGDRVTITCRASQDVRTALDWYQQKPGQSPKLLIYSASYRYSGVPSRFSGSGSGTDFTLTISSLQPEDFATYYCQQQYTTPYTFGQGTKLEIKR
notes: Humanized variant with G80A in HC CDR2 (already in the entry), human IgG1 / kappa
One may read the EC50 as the concentration giving half of the maximal effect. B3: the EC50 in test [2] came to 0.005 µg/mL. In test [3], the “IC50, inhibition … from NHS” value is 0.5 µg/mL. In test [1], the “IC50, inhibition … from CMS” value is 0.5 µg/mL.

B4: Anti-C1s antibody hz2-8 (H1L2 G80A/T82A) (antibody, V domains shown)
VH: B3 VH with T58A
VL: B3 VL
notes: Humanized variant with G80A and T82A in HC CDR2 (already in the entry), human IgG1 / kappa
In test [2], B4 yielded a 50% effective concentration (EC50) of 0.008 µg/mL. For the same molecule, in test [3], the “IC50, inhibition … from NHS” value amounted to 0.4 µg/mL. The “IC50, inhibition … from CMS” value in test [1] worked out at 0.4 µg/mL.

B5: Anti-C1s antibody 2-7 (antibody, human IgG1, kappa, V domains shown)
VH: EVKLEESGGGLVPPGGSMKLSCVASGFTFSNYFMNWVRQSPEKGLEWVAEIRLKFTNYATHYAESVEGRFTISRDDSKSSVYLQMNNLRAEDTGIYYCTRDYGSRNGYFDYWGQGTTLTVSS
VL: DIVMTQAAPSVPVTPGESVSISCRSSKSLLHSNGNTFLYWFLQRPGQSPQLLIYRMSNLASGVPDRFSGSGSGTAFTLRVSRVEAEDVGIYYCMQHLEYPYTFGGGTKLEIKT
notes: the HC/LC entries may hold it too; also called clone 2-7
Consider B5, for which the “IC50, inhibition of IgM-induced C4 deposition from cynomolgus monkey serum” value in test [1] was around 0.3 µg/mL.
